In paper PMC3384303 (Nucleic Acids Research, 2012):

Molecular target: the molecule itself
Experiment: crystal structure

B1: SsbB (natural protein, Bacillus subtilis, UniProt C0SPB6 1-113, looked up)
chain: MFNQVMLVGRLTKDPDLRYTSAGAAVAHVTLAVNRSFKNASGEIEADYVNCTLWRKTAENTALYCQKGSLVGVSGRIQTRSYENEEGVNVYVTEVLADTVRFMDPKPREKAAD
stoichiometry N: 4
